# Assay results reported in patent US12673985B2, “Method for the treatment or prophylaxis of cancer by targeting the extracellular portion of keratin 14 (KRT14) residing on cancer cells” (Hudson Institute of Medical Research, priority 2019, dated 2026).
# Entries after “also recorded” stand apart in the source; their conditions may differ.
# Legend:
# KRT14 = target: T1, KRT14 (Homo sapiens, UniProt P02533); test: Immunohistochemical staining of FFPE tumour tissue sections; conditions: 2 μg/ml-0.25 μg/ml, overnight incubation
# T1 sequence (P02533 1-472): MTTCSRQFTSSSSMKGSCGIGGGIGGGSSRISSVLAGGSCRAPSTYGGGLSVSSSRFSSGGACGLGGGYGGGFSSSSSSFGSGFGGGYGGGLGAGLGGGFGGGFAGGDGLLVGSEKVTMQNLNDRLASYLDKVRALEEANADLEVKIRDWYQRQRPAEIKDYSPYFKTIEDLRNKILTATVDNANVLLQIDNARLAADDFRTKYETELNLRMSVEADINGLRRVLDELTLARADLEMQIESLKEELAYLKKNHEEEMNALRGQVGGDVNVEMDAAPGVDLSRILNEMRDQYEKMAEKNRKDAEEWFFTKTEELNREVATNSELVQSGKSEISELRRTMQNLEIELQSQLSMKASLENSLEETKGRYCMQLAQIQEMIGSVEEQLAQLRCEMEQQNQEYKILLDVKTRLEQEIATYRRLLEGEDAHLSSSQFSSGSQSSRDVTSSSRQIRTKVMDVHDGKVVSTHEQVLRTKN
# Procedure: Human Tissue Arrays and Immunohistochemistry. Immunohistochemistry was performed on tissue micrarray (TMA) sections purchased from USBIOMAX (#ov2085, #ov20811) or generated in house (tumour and fallopian tube) as previously described [Bilandzic et al. (2014) Cancer Lett 354(1):107-114; Rainczuk et al. (2013) J Proteome Res; Salamonsen et al. (2013) Fertil Steril 99(4):1086-92](Supplementary Data 6 and 7). For antigen retrieval, sections were incubated for 10 minutes in 50 mM glycine (pH 3.5) at 90° C. Sections were incubated overnight at 4° C. with Rb-KRT14 antibody (1:100, Sigma, SAB4501657) and mAb AN-17 (1:500) in 0.1% w/v BSA/PBS. Subsequent steps were performed at room temperature, with PBS washes between incubations. […] Antibody binding was detected as a brown precipitate after development with 3,3′-diaminobenzidine tetrahydrochloride, and Harris hematoxylin was used as counterstain. […] Positive immunostaining was assessed relative to parallel sections exposed to an isotype (IgG) control. Immunostaining in tumor and stromal tissue was assessed using Aperio ImageScope (v 12.3.3) as described (Rainczuk et al. (2013) supra). […]
# [1] = system: BT16 atypical teratoid rhabdoid (brain) carcinoma; test: In vitro wound repair assay; type: cell-based; conditions: mAb 1 μg/ml; 16 hrs
# Procedure: (§1) In vitro wound repair assay. Ovarian cancer cells (or other cancer cell lines—BT16, NCI-H1573, AN3CA, SW620 and MDA-MB-468) were grown in complete medium to confluency in a 12-well plate, then serum-starved overnight to synchronize at G0. The following day cell culture medium was removed, and cell monolayers were wounded by scraping with a pipette tip attached to suction. Non-adherent cells were removed by gentle washes with PBS, and complete growth medium with or without mAb AN-17 (1 μg/ml) or commercial KRT14 polyclonal antibody (1 μg/ml) was replaced. The wound area was imaged under a phase microscope (Leica) at regular intervals ranging from 0-72 h. Wound closure was measured in image series using AnalySIS LS Research Software (Olympus) to determine the area of the wound on each day. Experiments were repeated in triplicate with at least six wound areas observed per growth condition.
# (§2) In vitro wound repair assays were conducted on the following cancer cell lines: BT16 atypical teratoid rhabdoid (brain) carcinoma, NCI-H1573 lung adenocarcinoma, SJ-GBM2 primary glioblastoma multiforme, AN3CA endometrial carcinoma, SW620 colorectal carcinoma and MDA-MB-468 breast carcinoma. Cells were grown in complete medium to confluency in a 12-well plate, and subsequently serum-starved overnight to synchronize at G0. The following day, cell culture medium was removed and the cell monolayers were wounded by scraping with a pipette tip attached to suction. Non-adherent cells were removed by gentle washes with phosphate buffered saline (PBS) and complete growth medium was added to each well, in either the absence or presence of mAb AN-17 (at 1 μg/ml). The wound area was imaged every hour for 0-24 hours. Wound closure was measured in image series using AnalySIS LS Research Software (Olympus) to determine the area of the wound on each day. Experiments were repeated in triplicate with at least six wound areas observed per growth condition.
# [2] = system: MDA-MB-468 breast carcinoma; test: In vitro wound repair assay; type: cell-based; conditions: mAb 1 μg/ml; 16 hrs
# Procedure: as §1, §2
# [3] = system: NCI-H1573 lung adenocarcinoma; test: In vitro wound repair assay; type: cell-based; conditions: mAb 1 μg/ml; 16 hrs
# Procedure: as §1, §2
molecule,measurement,setting,value
"mAb AN-17: monoclonal anti-KRT14 antibody; heavy chain variable region SEQ ID NO:3, light chain variable region SEQ ID NO:5 (clone AN-17A RG4.E5b.A7.B4) (antibody, listed as Mus musculus, V domains shown) VH: QVQLKESGPGLVAPSQSLSITCTVSGFSLSRYSVHWVRQPPGKGLEWLGMIWGGGSTDYNSALKSRLSISKDNSKSQVFLKMNSLQTDDTAMYYCARKDYGYSYFDYWGQGTTLTVSS VL: DVLMTQTPLSLPVSLGDQASISCRSSQSIVHSNGNTYLEWYLQKPGQSPKLLIYKVSNRFSGVPDRFSGSGSGTDFTLKISRVEAEDLGVYYCFQGSHVPFTFGSGTKLEIKRADAAPTVS",staining localization in tumour tissue,KRT14,Staining was restricted to tumour epithelium
same,staining localization in tumour tissue,KRT14; listed as mAb A-17,staining observed specifically in the tumour epithelium
same,"wound closure / migration, BT16",[1],failed to close the wound; also recorded: impaired
same,"wound closure / migration, MDA-MB-468",[2],failed to close the wound; also recorded: impaired
same,"wound closure / migration, NCI-H1573",[3],failed to close the wound; also recorded: impaired
